According to publication PMC11369174, “Proteome-scale characterisation of motif-based interactome rewiring by disease mutations” (Molecular Systems Biology, 2024):

What was measured:
KPNA4 ARM = experiment: GenVar_HD2 ProP-PD phage selection, KPNA4 ARM; format: binding, human; details: bait-prey protein level, bait_accession O00629
ABL1 SH3 = ABL1 SH3 (Homo sapiens, UniProt P00519); experiment: GenVar_HD2 ProP-PD phage selection, ABL1 SH3; format: binding; details: bait domain-prey protein level, bait ABL1_SH3__P00519_60_121
ABL1 SH3, sequence (P00519 60-121): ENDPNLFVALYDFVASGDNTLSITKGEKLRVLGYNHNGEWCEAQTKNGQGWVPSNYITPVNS

B1: O60934 (protein, UniProt O60934 1-754, looked up)
chain: MWKLLPAAGPAGGEPYRLLTGVEYVVGRKNCAILIENDQSISRNHAVLTANFSVTNLSQTDEIPVLTLKDNSKYGTFVNEEKMQNGFSRTLKSGDGITFGVFGSKFRIEYEPLVACSSCLDVSGKTALNQAILQLGGFTVNNWTEECTHLVMVSVKVTIKTICALICGRPIVKPEYFTEFLKAVESKKQPPQIESFYPPLDEPSIGSKNVDLSGRQERKQIFKGKTFIFLNAKQHKKLSSAVVFGGGEARLITEENEEEHNFFLAPGTCVVDTGITNSQTLIPDCQKKWIQSIMDMLQRQGLRPIPEAEIGLAVIFMTTKNYCDPQGHPSTGLKTTTPGPSLSQGVSVDEKLMPSAPVNTTTYVADTESEQADTWDLSERPKEIKVSKMEQKFRMLSQDAPTVKESCKTSSNNNSMVSNTLAKMRIPNYQLSPTKLPSINKSKDRASQQQQTNSIRNYFQPSTKKRERDEENQEMSSCKSARIETSCSLLEQTQPATPSLWKNKEQHLSENEPVDTNSDNNLFTDTDLKSIVKNSASKSHAAEKLRSNKKREMDDVAIEDEVLEQLFKDTKPELEIDVKVQKQEEDVNVRKRPRMDIETNDTFSDEAVPESSKISQENEIGKKRELKEDSLWSAKEISNNDKLQDDSEMLPKKLLLTEFRSLVIKNSTSRNPSGINDDYGQLKNFKKFKKVTYPGAGKLPHIIGGSDLIAHHARKNTELEEWLRQEMEVQNQHAKEESLADDLFRYNPYLKRRR
modifications: full-length
Which max_promiscuity (KPNA4 ARM) does the source give for B1 here?
The max_promiscuity was 1.

What about the max_specificity (KPNA4 ARM) of the same molecule?
The max_specificity was 1.

B2: FANCG (protein, UniProt O15287 1-622, looked up)
Fanconi anemia group G protein: MSRQTTSVGSSCLDLWREKNDRLVRQAKVAQNSGLTLRRQQLAQDALEGLRGLLHSLQGLPAAVPVLPLELTVTCNFIILRASLAQGFTEDQAQDIQRSLERVLETQEQQGPRLEQGLRELWDSVLRASCLLPELLSALHRLVGLQAALWLSADRLGDLALLLETLNGSQSGASKDLLLLLKTWSPPAEELDAPLTLQDAQGLKDVLLTAFAYRQGLQELITGNPDKALSSLHEAASGLCPRPVLVQVYTALGSCHRKMGNPQRALLYLVAALKEGSAWGPPLLEASRLYQQLGDTTAELESLELLVEALNVPCSSKAPQFLIEVELLLPPPDLASPLHCGTQSQTKHILASRCLQTGRAGDAAEHYLDLLALLLDSSEPRFSPPPSPPGPCMPEVFLEAAVALIQAGRAQDALTLCEELLSRTSSLLPKMSRLWEDARKGTKELPYCPLWVSATHLLQGQAWVQLGAQKVAISEFSRCLELLFRATPEEKEQGAAFNCEQGCKSDAALQQLRAAALISRGLEWVASGQDTKALQDFLLSVQMCPGNRDTYFHLLQTLKRLDRRDEATALWWRLEAQTKGSHEDALWSLPLYLESYLSWIRPSDRDAFLEEFRTSLPKSCDL
Which max_promiscuity (ABL1 SH3) does the source give for B2 here?
Its max_promiscuity is 5.

And the max_specificity (ABL1 SH3)?
The max_specificity was 1.

B3: O60832 (protein, UniProt O60832 1-514, looked up)
chain: MADAEVIILPKKHKKKKERKSLPEEDVAEIQHAEEFLIKPESKVAKLDTSQWPLLLKNFDKLNVRTTHYTPLACGSNPLKREIGDYIRTGFINLDKPSNPSSHEVVAWIRRILRVEKTGHSGTLDPKVTGCLIVCIERATRLVKSQQSAGKEYVGIVRLHNAIEGGTQLSRALETLTGALFQRPPLIAAVKRQLRVRTIYESKMIEYDPERRLGIFWVSCEAGTYIRTLCVHLGLLLGVGGQMQELRRVRSGVMSEKDHMVTMHDVLDAQWLYDNHKDESYLRRVVYPLEKLLTSHKRLVMKDSAVNAICYGAKIMLPGVLRYEDGIEVNQEIVVITTKGEAICMAIALMTTAVISTCDHGIVAKIKRVIMERDTYPRKWGLGPKASQKKLMIKQGLLDKHGKPTDSTPATWKQEYVDYSESAKKEVVAEVVKAPQVVAEAAKTAKRKRESESESDETPPAAPQLIKKEKKKSKKDKKAKAGLESGAEPGDGDSDTTKKKKKKKKAKEVELVSE
modifications: full-length
Which max_promiscuity (KPNA4 ARM) does the source give for B3 here?
The max_promiscuity was 3.

What about the max_specificity (KPNA4 ARM) of the same molecule?
The max_specificity was 1.

B4: ESPN (protein, UniProt B1AK53 1-854, looked up)
Espin: MALEQALQAARQGELDVLRSLHAAGLLGPSLRDPLDALPVHHAARAGKLHCLRFLVEEAALPAAARARNGATPAHDASATGHLACLQWLLSQGGCRVQDKDNSGATVLHLAARFGHPEVVNWLLHHGGGDPTAATDMGALPIHYAAAKGDFPSLRLLVEHYPEGVNAQTKNGATPLYLACQEGHLEVTQYLVQECGADPHARAHDGMTPLHAAAQMGHSPVIVWLVSCTDVSLSEQDKDGATAMHFAASRGHTKVLSWLLLHGGEISADLWGGTPLHDAAENGELECCQILVVNGAELDVRDRDGYTAADLSDFNGHSHCTRYLRTVENLSVEHRVLSRDPSAELEAKQPDSGMSSPNTTVSVQPLNFDLSSPTSTLSNYDSCSSSHSSIKGQHPPCGLSSARAADIQSYMDMLNPELGLPRGTIGKPTPPPPPPSFPPPPPPPGTQLPPPPPGYPAPKPPVGPQAADIYMQTKNKLRHVETEALKKELSSCDGHDGLRRQDSSRKPRAFSKQPSTGDYYRQLGRCPGETLAARPGMAHSEEVRARQPARAGCPRLGPAARGSLEGPSAPPQAALLPGNHVPNGCAADPKASRELPPPPPPPPPPLPEAASSPPPAPPLPLESAGPGCGQRRSSSSTGSTKSFNMMSPTGDNSELLAEIKAGKSLKPTPQSKGLTTVFSGIGQPAFQPDSPLPSVSPALSPVRSPTPPAAGFQPLLNGSLVPVPPTTPAPGVQLDVEALIPTHDEQGRPIPEWKRQVMVRKMQLKMQEEEEQRRKEEEEEARLASMPAWRRDLLRKKLEEEREQKRKEEERQKQEELRREKEQSEKLRTLGYDESKLAPWQRQVILKKGDIAKY
How did the max_promiscuity (ABL1 SH3) turn out when B4 was run?
Its max_promiscuity is 2.

And the max_specificity (ABL1 SH3)?
The max_specificity was 0.8421.
